Measured values reported in PMC9307002, “Carboxyl Methyltransferase Catalysed Formation of Mono‐ and Dimethyl Esters under Aqueous Conditions: Application in Cascade Biocatalysis” (Angewandte Chemie (International Ed. in English), 2022).

Columns and labels:
Experiment in all cases: methyltransferase kinetics
Type in all cases: biochemical, Aspergillus fumigatus
Settings in all cases: methyl donor SAM
[1] = substrate: O=C(O)c1ccc(C(=O)O)o1
[2] = substrate: COC(=O)c1ccc(C(=O)O)o1
[3] = substrate: O=C(O)/C=C/C(=O)N[C@@H](Cc1ccc(O)cc1)C(=O)O
[4] = substrate: O=C(O)c1ccc(C(=O)O)cc1
[5] = substrate: COC(=O)c1ccc(C(=O)O)cc1

B1: FtpM (Aspergillus fumigatus Af293) (protein)
chain: MTQSNGNAVSSASDPYRLNRNIAASTRLSLQHYIWKENMGYLLHPSIDVSRPDLAIADVGTGTAIWILDLLRQLPNAKFHGFDISSEQYPAPGFLPPNVSLSKLDILGEIPEEYREKFDVVHARLLVQVVNQAGSDPVPVIRNMMKLLKPGGYLQWEEPNDDASKRPIVKADPANSSENAEKLLQRLDARFRAATPASWSVALAETFKEQGLQNVVREEFSTDTYLLLLDQTNYLGLFGELISKLDGDLKEELTQLHANTVAEARKGLSWKVRRFAFLGQKP
notes: recombinant, C-terminal His-tag; dimer (modelled)
B1 was tested, and the Km [1] was 0.52 mM, the kcat [1] was 0.02 min⁻¹ and the Km [2] was 1.4 mM. It also gave a kcat [2] of 0.005 min⁻¹, a Km [3] of 0.68 mM and a kcat [3] of 0.063 min⁻¹. The Km [4] was 0.072 mM, the kcat [4] was 0.89 min⁻¹ and the Km [5] was 1.51 mM. For the same protein, the kcat [5] was 0.0049 min⁻¹.
